Reference: article PMC7452893 (Nature Communications, 2020)

Key:
Details in all cases: both partners purified
[1] = target: T1, SARS-CoV-2 spike receptor-binding domain (RBD), monomeric (SARS-CoV-2, UniProt P0DTC2); assay: ELISA; direct ELISA; plates coated with 2 μg/ml recombinant spike, S1, RBD or NTD; scFv-Fc detected with AP-conjugated anti-human IgG; specificity panel (Fig. 1c)
T1 construct: Called monomeric RBD in the BLI methods; Amino acids 1-15 are probably removed on secretion (surmise); also called monomeric RBD

[2] = target: T2, SARS-CoV-2 spike glycoprotein, soluble (amino acids 1-1207) (SARS-CoV-2, Wuhan-Hu-1 (QHD43416), UniProt P0DTC2, proline substitution at position 986 | proline substitution at position 987 | …); assay: as above
T2 construct: also called spike protein

[3] = target: T1, SARS-CoV-2 spike receptor-binding …; assay: BLI; Octet; biotinylated scFv-Fc on streptavidin sensors; increasing concentrations of monomeric RBD, 300 s association, 600 s dissociation; 30 °C; 1:1 binding model

B1: MD47 (antibody, V domains shown)
V domain 1: QMQLVQSGGGLVQPGGSLRLSCAASGFTFSSYAMSWVRQAPGKGLEWVSAISSGGSTYYADSVKGRFTISRDNSKNTLYLQMNSLRAEDTAVYYCAKDLVTAPSYEAFDIWGQGTMITVSS
V domain 2: NFMLTQPPSVSVAPGKTARITCGGNNIGSKSVHWYQQKPGQAPVLVIYYDSDRPSGIPERFSGSNSGNTATLTISRVEAGDEADYYCQVWDSSSHHHVVFGGGTKGTVL
notes: scFv-Fc format; also called MD47 scFv-Fc
B1: binds [1].

B2: MD62 (antibody, V domains shown)
VH: EVQLVQSGGGLIQPGGSLRLSCAASGVTVSSNYMTWVRQAPGKGLEWVSLIYSGGSTYYADSVKGRFTISRDNSKNTLYLQMNSLRAEDTAVYYCARDLQYYGMDVWGQGTMVTVSS
VL: AIRMTQSPSSVSASVGDRVTITCRASQDIGSWLGWYQQKPGKAPKLLIYAASSLAGGVPSRFSGSGSGTDFTLTISSLQPEDFATYYCQQANSFPLTFGGGTKLEIK
notes: scFv-Fc format; also called MD62 scFv-Fc
B2: binds [2].

B3: MD17 (antibody, V domains shown)
VH: EVQLLESGGGLVQPGGSLRLSCSASGFTFSTYVMNWVRQAPGKGLEHVSGISSDGGITYYADSVKGRFTISRDNSKNTLYLQMSSLRVEDTAVYYCVKDQDSSSWYDAFDIWGQGTMVTVSS
VL: DIVMTQSPSSLSASVGDRVTITCRASQSISNYLNWYQQKLGKAPKLLTYAASRLQSGVPSRFSASGSGTEFTLTISSLQPEDFATYYCQQSYTTPLTFGGGTKLEIK
notes: scFv-Fc format; also called MD17 scFv-Fc
B3: binds [2].

B4: MD29 (antibody, V domains shown)
VH: QMQLVQSGGGLVQPGGSLRLSCSASGFTFSTYVMNWVRQAPGKGPEHVSGISSDGGITYYADSVKGRFTISRDNSKNTLYLQMSSLRVEDTAVYYCVKDQDSSSWYDAFDIWGQGTMVTVSS
VL: NIRLTQSPSSLSASVGDRVTITCRATQSISSYLNWYQQKPGKAPNLLIYAASSLQSGVPSRFSGSGSGTDFTLTISSLQPEDFATYYCHQTYTSPYTFGQGTKLEIK
notes: scFv-Fc format; also called MD29 scFv-Fc
For B4, the binding result [2] was “binds” and the Kd [3] was 0.4 to 5.8 nM.

B5: MD67 (antibody, V domains shown)
VH: EVQLVESGGGLVQPGGSLRLSCAASGFTVSSNYMTWVRQAPGKGLEWVSVIYSGGSTFYADSVKGRFTISRHNSKNTLYLQMNSLRAEDTAVYYCARDLSVRGGMDVWGQGTTVTVSS
VL: not shown
notes: scFv-Fc format; also called MD67 scFv-Fc
B5 showed a Kd [3] of 0.4 to 5.8 nM.
